Test results published in US6676943.

Biological target: human complement protein C3, P01024
Sequence (P01024 whole entry, looked up): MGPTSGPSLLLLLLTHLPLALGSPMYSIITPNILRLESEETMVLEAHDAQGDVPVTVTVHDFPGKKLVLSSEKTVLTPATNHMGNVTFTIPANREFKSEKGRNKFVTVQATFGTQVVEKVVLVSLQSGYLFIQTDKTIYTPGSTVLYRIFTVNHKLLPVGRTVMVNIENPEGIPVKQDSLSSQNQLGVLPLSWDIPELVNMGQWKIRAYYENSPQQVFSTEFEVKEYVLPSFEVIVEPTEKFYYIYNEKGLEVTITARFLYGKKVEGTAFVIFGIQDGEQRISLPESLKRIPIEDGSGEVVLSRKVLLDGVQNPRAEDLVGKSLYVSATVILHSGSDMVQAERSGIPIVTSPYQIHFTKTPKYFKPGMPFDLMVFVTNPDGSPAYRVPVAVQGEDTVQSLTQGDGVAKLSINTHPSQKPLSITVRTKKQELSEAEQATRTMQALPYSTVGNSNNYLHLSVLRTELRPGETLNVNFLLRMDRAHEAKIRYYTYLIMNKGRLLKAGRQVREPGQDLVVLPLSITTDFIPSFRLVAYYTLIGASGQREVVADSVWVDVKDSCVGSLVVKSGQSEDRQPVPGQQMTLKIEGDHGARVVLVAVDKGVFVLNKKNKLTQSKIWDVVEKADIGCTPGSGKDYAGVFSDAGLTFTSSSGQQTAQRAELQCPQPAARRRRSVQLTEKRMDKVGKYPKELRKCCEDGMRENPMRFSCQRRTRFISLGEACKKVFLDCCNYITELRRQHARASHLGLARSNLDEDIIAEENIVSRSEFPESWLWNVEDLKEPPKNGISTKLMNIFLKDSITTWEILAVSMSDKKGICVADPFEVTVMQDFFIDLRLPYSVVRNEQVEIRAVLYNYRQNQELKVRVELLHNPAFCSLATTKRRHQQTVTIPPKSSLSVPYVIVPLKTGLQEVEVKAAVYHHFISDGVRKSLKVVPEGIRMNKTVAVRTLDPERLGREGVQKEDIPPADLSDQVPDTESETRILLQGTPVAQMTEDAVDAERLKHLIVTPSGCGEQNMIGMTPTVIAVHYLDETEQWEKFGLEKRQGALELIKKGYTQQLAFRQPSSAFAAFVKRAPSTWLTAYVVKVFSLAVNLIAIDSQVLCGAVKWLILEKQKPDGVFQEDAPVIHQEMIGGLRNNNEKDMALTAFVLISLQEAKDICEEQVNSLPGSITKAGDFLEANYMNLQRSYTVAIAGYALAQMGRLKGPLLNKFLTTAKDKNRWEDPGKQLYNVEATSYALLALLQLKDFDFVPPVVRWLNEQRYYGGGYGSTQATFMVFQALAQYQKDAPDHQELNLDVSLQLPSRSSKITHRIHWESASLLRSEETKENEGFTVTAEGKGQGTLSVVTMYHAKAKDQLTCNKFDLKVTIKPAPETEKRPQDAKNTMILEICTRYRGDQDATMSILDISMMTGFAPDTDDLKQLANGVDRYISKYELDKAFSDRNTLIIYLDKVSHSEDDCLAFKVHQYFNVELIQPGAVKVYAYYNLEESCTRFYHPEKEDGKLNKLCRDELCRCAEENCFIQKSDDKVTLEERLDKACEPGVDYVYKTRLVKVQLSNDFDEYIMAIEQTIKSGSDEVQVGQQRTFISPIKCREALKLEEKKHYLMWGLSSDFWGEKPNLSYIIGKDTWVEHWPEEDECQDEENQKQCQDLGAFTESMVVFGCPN

B1: His-tagged CppA protein (recombinant C3-degrading proteinase of Streptococcus pneumoniae encoded by ORF3 / cppA) (protein)
chain: MNVNQIVRIIPTLKANNRKLNETFYIETLGMKALLEESAFLSLGDQTGLEKLVLEEAPSMRTRKVEGRKKLARLIVKVENPLEIEGILSKTDSIHRLYKGQNGYAFEIFSPEDDLILIHAEDDIASLVEVGEKPEFQTDLASISLSKFEISMELHLPTDIESFLESSEIGASLDFIPAQGQDLTVDNTVTWDLSMLKFLVNELDIASLRQKFESTEYFIPKSEKFFLGKDRNNVELWFEEV
- C3 degradation (4 hrs at 37 C in PBS; reducing SDS-PAGE and Western Blot with polyclonal anti-C3): the protein degraded human C3 protein. Both α and β chains of C3 molecules were susceptible to degradation
- C3 degradation (4 hrs at 37 C in PBS; reducing SDS-PAGE and Western immunoblotting with polyclonal anti-C3): the samples that contained the expressed protein degraded C3 molecules ... the α chain was almost completely degraded while the β chain was partially degraded in the ORF3 samples
